B1: GTP-binding protein Rit2 (Mus musculus), P70425 (parent)
chain: MEVENEAHCCPGSSSGGSREYKVVMLGAGGVGKSAVTMQFISHQFPDYHDPTIEDAYKTQVRIDNEPAYLDILDTAGQAEFTAMREQYMRGGEGFIICYSVTDRQSFQEAAKFKELIFQVRHTYEIPLVLVGNKIDLEQFRQVSTEEGMNLARDYNCAFFETSAALRFGIDDAFQGLVREIRRKESMLSLVERKLKRKDSLWKKIKASLKKKRENML
B2: GTP-binding protein Rit2 (Mus musculus), P70425 (parent)
chain: B1 chain
partner: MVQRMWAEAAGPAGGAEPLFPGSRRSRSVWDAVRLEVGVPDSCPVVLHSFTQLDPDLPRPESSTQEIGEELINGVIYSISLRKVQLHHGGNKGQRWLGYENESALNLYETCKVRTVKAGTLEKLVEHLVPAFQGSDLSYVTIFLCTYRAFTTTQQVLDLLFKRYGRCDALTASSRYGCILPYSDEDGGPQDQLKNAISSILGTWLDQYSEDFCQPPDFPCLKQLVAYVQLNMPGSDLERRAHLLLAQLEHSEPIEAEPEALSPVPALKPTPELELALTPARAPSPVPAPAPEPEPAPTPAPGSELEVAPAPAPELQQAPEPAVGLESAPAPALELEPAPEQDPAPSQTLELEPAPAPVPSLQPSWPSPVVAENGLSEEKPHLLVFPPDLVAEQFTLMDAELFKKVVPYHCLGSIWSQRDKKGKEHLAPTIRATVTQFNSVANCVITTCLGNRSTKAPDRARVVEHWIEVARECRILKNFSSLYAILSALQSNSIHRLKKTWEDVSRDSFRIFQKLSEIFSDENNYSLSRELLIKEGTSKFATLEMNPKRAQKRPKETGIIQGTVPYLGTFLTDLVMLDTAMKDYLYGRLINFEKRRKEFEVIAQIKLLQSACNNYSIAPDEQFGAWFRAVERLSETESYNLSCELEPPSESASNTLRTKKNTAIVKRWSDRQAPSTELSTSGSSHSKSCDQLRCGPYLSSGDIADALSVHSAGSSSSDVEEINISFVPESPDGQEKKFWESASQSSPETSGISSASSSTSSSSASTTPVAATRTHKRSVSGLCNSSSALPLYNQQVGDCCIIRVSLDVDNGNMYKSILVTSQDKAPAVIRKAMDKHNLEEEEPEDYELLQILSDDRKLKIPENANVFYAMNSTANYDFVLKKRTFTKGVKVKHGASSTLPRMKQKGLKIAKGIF

Variants of: B1
Conditions: with rlf_human RLF

| Variant | effect of a mutation on the interaction |
| --- | --- |
| MEVENEAHCCPGSSSGGSREYKVVMLGAGGVGKNAVTMQFISHQFPDYHDPTIEDAYKTQVRIDNEPAYLDILDTAGQAEFTAMREQYMRGGEGFIICYSVTDRQSFQEAAKFKELIFQVRHTYEIPLVLVGNKIDLEQFRQVSTEEGMNLARDYNCAFFETSAALRFGIDDAFQGLVREIRRKESMLSLVERKLKRKDSLWKKIKASLKKKRENML [S34N] | decreasing interaction |

Variants of: B1
Conditions: with afad_human AFDN

| Variant | effect of a mutation on the interaction |
| --- | --- |
| MEVENEAHCCPGSSSGGSREYKVVMLGAGGVGKNAVTMQFISHQFPDYHDPTIEDAYKTQVRIDNEPAYLDILDTAGQAEFTAMREQYMRGGEGFIICYSVTDRQSFQEAAKFKELIFQVRHTYEIPLVLVGNKIDLEQFRQVSTEEGMNLARDYNCAFFETSAALRFGIDDAFQGLVREIRRKESMLSLVERKLKRKDSLWKKIKASLKKKRENML [S34N] | decreasing interaction |

Variants of: B2
Conditions: with gnds_human RALGDS

| Variant | effect of a mutation on the interaction |
| --- | --- |
| MEVENEAHCCPGSSSGGSREYKVVMLGAGGVGKNAVTMQFISHQFPDYHDPTIEDAYKTQVRIDNEPAYLDILDTAGQAEFTAMREQYMRGGEGFIICYSVTDRQSFQEAAKFKELIFQVRHTYEIPLVLVGNKIDLEQFRQVSTEEGMNLARDYNCAFFETSAALRFGIDDAFQGLVREIRRKESMLSLVERKLKRKDSLWKKIKASLKKKRENML [S34N] | decreasing interaction |

From IntAct's records for PubMed 10545207
